From patent US20160347801A1 (NATIONAL CANCER CENTER, published 2016) come the findings set out here.

As usually defined, the Kd is the concentration at which binding is half-saturated. Higher therefore signals a looser complex.

Experiment [1] concerns the target T1, human PLK1-PBD (371-594) (human, UniProt P53350 371-594).
T1 construct: range 371-594; Made in E. coli as a GST fusion (pGEX6p-1); also called PBD of PLK1; purified PBD
As to the kind of experiment: fluorescence polarization, FITC peptide 10 nM, PBD 0 to 4 µM.

Experiment [2] deals with T2, NCAPG2 (detected by immunoblotting in Flag-PLK1 immunoprecipitates) (human, UniProt Q86XI2 1-1143, limits assumed).
T2 construct: Apparently the cells' own NCAPG2
T2 sequence: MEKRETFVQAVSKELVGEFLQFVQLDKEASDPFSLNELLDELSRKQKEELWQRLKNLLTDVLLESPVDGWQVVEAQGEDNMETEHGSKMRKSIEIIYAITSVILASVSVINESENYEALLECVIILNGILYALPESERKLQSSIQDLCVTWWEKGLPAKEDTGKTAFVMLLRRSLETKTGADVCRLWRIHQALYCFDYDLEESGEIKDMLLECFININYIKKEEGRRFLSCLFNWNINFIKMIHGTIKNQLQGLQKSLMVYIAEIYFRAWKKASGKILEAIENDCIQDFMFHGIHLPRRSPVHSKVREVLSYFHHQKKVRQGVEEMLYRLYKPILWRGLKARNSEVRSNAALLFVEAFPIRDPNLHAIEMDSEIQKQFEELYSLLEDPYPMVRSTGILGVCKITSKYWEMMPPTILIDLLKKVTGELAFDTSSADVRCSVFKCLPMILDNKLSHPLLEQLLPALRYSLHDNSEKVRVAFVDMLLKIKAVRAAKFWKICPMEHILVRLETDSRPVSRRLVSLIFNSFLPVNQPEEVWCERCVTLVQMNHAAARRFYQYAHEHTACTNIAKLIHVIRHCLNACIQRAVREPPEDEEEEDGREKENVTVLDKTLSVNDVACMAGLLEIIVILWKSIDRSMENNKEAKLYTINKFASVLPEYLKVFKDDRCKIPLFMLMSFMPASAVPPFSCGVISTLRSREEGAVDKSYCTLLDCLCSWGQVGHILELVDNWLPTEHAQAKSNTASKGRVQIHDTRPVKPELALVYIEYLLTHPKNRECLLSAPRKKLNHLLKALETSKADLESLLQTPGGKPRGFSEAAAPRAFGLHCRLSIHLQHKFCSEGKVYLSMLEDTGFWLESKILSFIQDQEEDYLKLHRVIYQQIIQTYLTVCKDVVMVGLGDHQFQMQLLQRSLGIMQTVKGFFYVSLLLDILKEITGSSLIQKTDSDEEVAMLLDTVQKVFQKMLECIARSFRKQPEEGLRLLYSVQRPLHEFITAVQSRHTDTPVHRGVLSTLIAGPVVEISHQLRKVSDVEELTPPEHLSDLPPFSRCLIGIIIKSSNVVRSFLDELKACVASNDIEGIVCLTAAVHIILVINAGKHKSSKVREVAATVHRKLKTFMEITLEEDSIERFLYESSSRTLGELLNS
As to the kind of experiment: Flag-bead pull-down, NCAPG2 immunoblot. How it is done: The primary antibodies were purchased from commercial sources as follows: Histon H3 pS10 (Abcam, Cambridge, UK), NCAPG2 (Novus Biological, 1/1000), PLK1 (Novus Biological, 1/1000), BubR1 (BD Biosciences, 1/1000), β-actin (Sigma-Aldrich, 1/5000), and CREST (ImmunoVision, 1/1000). BubR1 676 antibodies (1/10000) were prepared as previously reported (Elowe, S., et al. Tension-sensitive Plk1 phosphorylation on BubR1 regulates the stability of kinetochore microtubule interactions. Genes Dev 21, 2205-19 (2007)). The precipitates were washed with TAP buffer three times at 4° C., re-suspended in 20 μl of 2X Sample buffer (125 mM Tris (pH 6.8), 200 mM DTT, 4% SDS, 20% Glycerol, 0.004% Bromophenol Blue) and proteins were denatured at 100° C. for 5 min.
For the detection of proteins using the immunoblottings, subjects were protein complexes from immunoprecipitation or whole cell lysates harvested from indicated conditions. Whole cells were harvested with lysis buffer (20 mM Tris, 5 mM EDTA, 10 mM Na₄P₂O₇, 100 mM NaF, 2 mM Na₃VO₄, 1% Np-40, 0.2% Protease Inhibitor Cocktail, and 1 mM PMSF) and centrifuged at 10,000 rpm, 4° C., 10 min. Protein concentration was determined using BCA™ protein assay kit (Pierce, Rockford, USA). […]

For another experiment, the target named is T3, human PLK2-PBD (451-685) (human, UniProt Q9NYY3 451-685).
T3 construct: range 451-685; GST fusion from pGEX6p-1, GST cleaved by 3C protease
T3 sequence (looked up): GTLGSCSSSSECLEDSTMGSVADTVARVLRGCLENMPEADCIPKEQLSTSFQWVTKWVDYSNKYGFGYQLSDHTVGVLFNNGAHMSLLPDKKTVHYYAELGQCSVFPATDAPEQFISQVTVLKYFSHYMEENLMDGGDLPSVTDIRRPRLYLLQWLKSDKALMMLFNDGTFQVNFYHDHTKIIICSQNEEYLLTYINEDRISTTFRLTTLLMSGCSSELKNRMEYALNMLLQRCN
As to the kind of experiment: fluorescence polarization, FITC peptide 10 nM. How it is done:
(§1) The final protein concentrations ranged from 0 to 4 uM, and the final peptide concentration was 10 nM. Fluorescence polarization was analyzed 30 min after mixing the peptide and proteins in a 96-well plate using an INFINTE 200 PRO (Tecan). Binding curves were fitted using the GraphPad Prism software.

For another experiment, the target named is T4, human PLK3-PBD (412-646) (human, UniProt Q9H4B4 412-646).
T4 construct: range 412-646; GST fusion from pGEX6p-1, GST cleaved by 3C protease
T4 sequence (looked up): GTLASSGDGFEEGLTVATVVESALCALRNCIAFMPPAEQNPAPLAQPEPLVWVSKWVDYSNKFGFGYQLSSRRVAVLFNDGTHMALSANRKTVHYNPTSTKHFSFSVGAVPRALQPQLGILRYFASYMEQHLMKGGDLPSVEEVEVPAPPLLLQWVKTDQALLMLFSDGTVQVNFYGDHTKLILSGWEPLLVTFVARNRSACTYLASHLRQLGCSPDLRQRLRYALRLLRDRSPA
The experiment in a line: fluorescence polarization, FITC peptide 10 nM. On the procedure: as §1

The target of experiment [3] is T1, human PLK1-PBD (371-594). As to the kind of experiment: fluorescence polarization, FITC peptide 10 nM. How it is done:
as §1

Where no end group is shown, it is not given here. [ ]: non-standard residue; d: D form. pT = C[C@@H](OP(=O)(O)O)[C@H](N)C(=O)O

T1 sequence (P53350 371-594 limits assumed): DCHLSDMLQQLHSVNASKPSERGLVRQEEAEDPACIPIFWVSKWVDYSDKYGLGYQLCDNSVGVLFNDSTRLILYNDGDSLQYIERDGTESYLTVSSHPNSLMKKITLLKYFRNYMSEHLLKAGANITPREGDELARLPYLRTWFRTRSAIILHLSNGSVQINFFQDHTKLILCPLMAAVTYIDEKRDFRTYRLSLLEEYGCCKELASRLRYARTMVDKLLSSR

FITC-labelled 1010pT peptide (GVLSpTLI) had a Kd with human PLK1-PBD (371-594) [1] of 69.9 nM.

B1: Flag-Plk1^FAA (other, UniProt P53350 1-603, looked up)
chain: MSAAVTAGKLARAPADPGKAGVPGVAAPGAPAAAPPAKEIPEVLVDPRSRRRYVRGRFLGKGGFAKCFEISDADTKEVFAGKIVPKSLLLKPHQREKMSMEISIHRSLAHQHVVGFHGFFEDNDFVFVVLELCRRRSLLELHKRRKALTEPEARYYLRQIVLGCQYLHRNRVIHRDLKLGNLFLNEDLEVKIGDFGLATKVEYDGERKKTLCGTPNYIAPEVLSKKGHSFEVDVWSIGCIMYTLLVGKPPFETSCLKETYLRIKKNEYSIPKHINPVAASLIQKMLQTDPTARPTINELLNDEFFTSGYIPARLPITCLTIPPRFSIAPSSLDPSNRKPLTVLNKGLENPLPERPREKEEPVVRETGEVVDCHLSDMLQQLHSVNASKPSERGLVRQEEAEDPACIPIFWVSKFVDYSDKYGLGYQLCDNSVGVLFNDSTRLILYNDGDSLQYIERDGTESYLTVSSHPNSLMKKITLLKYFRNYMSEHLLKAGANITPREGDELARLPYLRTWFRTRSAIILHLSNGSVQINFFQDATALILCPLMAAVTYIDEKRDFRTYRLSLLEEYGCCKELASRLRYARTMVDKLLSSRSASNRLKAS
notes: also called FAA mutant; substrate non recognizable FAA mutant; not shown: Flag tag
For B1, the binding result in experiment [2] was “no binding”.

B2: FITC-labelled 1010pT peptide (GVLSpTLI) (peptide)
peptide: GVLS[pT]LI
modifications: also: FITC label, site not given here
notes: this peptide carries pThr at the fifth position; also called phosphorylated 7-mer peptide 1006GVLS-pT-LI1012
Consider B2, for which the binding result with human PLK2-PBD (451-685) and with human PLK3-PBD (412-646) was “no binding (tested: protein 0 to 4 uM)” throughout. Regarding GVLSDLI (also: FITC label, site not given here) [FITC-labeled 1010D peptide (GVLSDLI)], the binding result with human PLK1-PBD (371-594) [3] is reported as “no binding (tested: protein 0 to 4 uM)”.

Consider GVLSELI (also: FITC label, site not given here) [FITC-labeled 1010E peptide (GVLSELI)], for which, in the experiment with human PLK1-PBD (371-594) [3], the binding result is reported as “no binding (tested: protein 0 to 4 uM)”.
